Reference: US20160272693A1 (ZEALAND PHARMA A S, published 2016)
*1 amine or outer side, *2 acyl side, *3 side chain or, on linkers, in order; H or OH if unused. Bridges are numbered along the chain shown (N, C = ends). [ ]: non-standard residue; d: D form. The star is where a group is joined. C20 diacid = O=C(O)CCCCCCCCCCCCCCCCCCC(=O)*; γGlu = O=C(O)[C@H](CCC(=O)[*:2])N[*:1]; Hyp = O=C(O)[C@@H]1C[C@@H](O)CN1; NMeI = CC[C@H](C)[C@H](NC)C(=O)O; Aad = N[C@@H](CCCC(=O)O)C(=O)O; Sar = CNCC(=O)O

T1: human amylin receptor 3 (hAMYR3), hCTR2 co-expressed with human receptor activity modifying protein 3 (hRAMP3) (human, UniProt P30988 25-474; O60896 24-148)
T1 sequence (looked up) 1: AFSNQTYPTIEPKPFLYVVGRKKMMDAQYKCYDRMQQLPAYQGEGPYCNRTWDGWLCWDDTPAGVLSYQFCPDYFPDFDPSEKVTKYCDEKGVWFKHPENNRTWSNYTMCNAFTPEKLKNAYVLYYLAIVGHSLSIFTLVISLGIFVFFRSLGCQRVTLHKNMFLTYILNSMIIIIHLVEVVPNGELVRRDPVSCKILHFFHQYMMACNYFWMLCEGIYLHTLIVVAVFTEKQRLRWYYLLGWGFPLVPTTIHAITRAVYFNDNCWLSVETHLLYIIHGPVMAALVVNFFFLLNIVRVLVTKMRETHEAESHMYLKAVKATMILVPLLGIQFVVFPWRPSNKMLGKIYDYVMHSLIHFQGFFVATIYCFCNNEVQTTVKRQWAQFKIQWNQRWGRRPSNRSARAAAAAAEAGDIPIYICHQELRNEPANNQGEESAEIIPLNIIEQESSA
T1 sequence (looked up) 2: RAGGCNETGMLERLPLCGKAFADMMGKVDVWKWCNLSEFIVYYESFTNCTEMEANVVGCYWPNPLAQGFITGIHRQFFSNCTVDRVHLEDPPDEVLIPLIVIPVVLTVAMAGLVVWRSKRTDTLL


Biological target: T1, human amylin receptor 3 (hAMYR3), hCTR2 …
Assay: cell-based or functional assay

| hAMYR3 EC50 (nM); cAMP induction [nM] | Binder |
| --- | --- |
| 0.39 | {C20 diacid}-[γGlu]RCPTATCATERLAHFLQRSSF[Sar]A[NMeI]LSSTEVGSTT[Hyp]-NH2 (disulfide 3-8; SMILES CC[C@H](C)[C@@H](C(=O)N[C@@H](CC(C)C)C(=O)N[C@@H](CO)C(=O)N[C@@H](CO)C(=O)N[C@H](C(=O)N[C@@H](CCC(=O)O)C(=O)N[C@H](C(=O)NCC(=O)N[C@@H](CO)C(=O)N[C@H](C(=O)N[C@H](C(=O)N1C[C@H](O)C[C@H]1C(N)=O)[C@@H](C)O)[C@@H](C)O)C(C)C)[C@@H](C)O)N(C)C(=O)[C@H](C)NC(=O)CN(C)C(=O)[C@H](Cc1ccccc1)NC(=O)[C@H](CO)NC(=O)[C@H](CO)NC(=O)[C@H](CCCNC(=N)N)NC(=O)[C@H](CCC(N)=O)NC(=O)[C@H](CC(C)C)NC(=O)[C@H](Cc1ccccc1)NC(=O)[C@H](Cc1c[nH]cn1)NC(=O)[C@H](C)NC(=O)[C@H](CC(C)C)NC(=O)[C@H](CCCNC(=N)N)NC(=O)[C@H](CCC(=O)O)NC(=O)[C@@H](NC(=O)[C@H](C)NC(=O)[C@@H]1CSSC[C@H](NC(=O)[C@H](CCCNC(=N)N)NC(=O)CC[C@H](NC(=O)CCCCCCCCCCCCCCCCCCC(=O)O)C(=O)O)C(=O)N2CCC[C@H]2C(=O)N[C@@H]([C@@H](C)O)C(=O)N[C@@H](C)C(=O)N[C@@H]([C@@H](C)O)C(=O)N1)[C@@H](C)O) [[19CD]-isoGlu-R-C( )-PTAT-C( )-ATERLAHFLQRSSF-Gly(Me)-A-Ile(Me)-LSSTEVGSTT-Hyp-NH2 (Compd. 74)] |
| 0.36 | {C20 diacid}-[γGlu]RCPTATCATERLAHFLQRSSF[Sar]A[NMeI]LSSTEVGSST[Hyp]-NH2 (disulfide 3-8; SMILES CC[C@H](C)[C@@H](C(=O)N[C@@H](CC(C)C)C(=O)N[C@@H](CO)C(=O)N[C@@H](CO)C(=O)N[C@H](C(=O)N[C@@H](CCC(=O)O)C(=O)N[C@H](C(=O)NCC(=O)N[C@@H](CO)C(=O)N[C@@H](CO)C(=O)N[C@H](C(=O)N1C[C@H](O)C[C@H]1C(N)=O)[C@@H](C)O)C(C)C)[C@@H](C)O)N(C)C(=O)[C@H](C)NC(=O)CN(C)C(=O)[C@H](Cc1ccccc1)NC(=O)[C@H](CO)NC(=O)[C@H](CO)NC(=O)[C@H](CCCNC(=N)N)NC(=O)[C@H](CCC(N)=O)NC(=O)[C@H](CC(C)C)NC(=O)[C@H](Cc1ccccc1)NC(=O)[C@H](Cc1c[nH]cn1)NC(=O)[C@H](C)NC(=O)[C@H](CC(C)C)NC(=O)[C@H](CCCNC(=N)N)NC(=O)[C@H](CCC(=O)O)NC(=O)[C@@H](NC(=O)[C@H](C)NC(=O)[C@@H]1CSSC[C@H](NC(=O)[C@H](CCCNC(=N)N)NC(=O)CC[C@H](NC(=O)CCCCCCCCCCCCCCCCCCC(=O)O)C(=O)O)C(=O)N2CCC[C@H]2C(=O)N[C@@H]([C@@H](C)O)C(=O)N[C@@H](C)C(=O)N[C@@H]([C@@H](C)O)C(=O)N1)[C@@H](C)O) [[19CD]-isoGlu-R-C( )-PTAT-C( )-ATERLAHFLQRSSF-Gly(Me)-A-Ile(Me)-LSSTEVGSST-Hyp-NH2 (Compd. 70)] |
| 0.24 | {C20 diacid}-[γGlu]RCNTATCATQRLAHFLQRSSF[Sar]A[NMeI]LSSTEVGSTT[Hyp]-NH2 (disulfide 3-8; SMILES CC[C@H](C)[C@@H](C(=O)N[C@@H](CC(C)C)C(=O)N[C@@H](CO)C(=O)N[C@@H](CO)C(=O)N[C@H](C(=O)N[C@@H](CCC(=O)O)C(=O)N[C@H](C(=O)NCC(=O)N[C@@H](CO)C(=O)N[C@H](C(=O)N[C@H](C(=O)N1C[C@H](O)C[C@H]1C(N)=O)[C@@H](C)O)[C@@H](C)O)C(C)C)[C@@H](C)O)N(C)C(=O)[C@H](C)NC(=O)CN(C)C(=O)[C@H](Cc1ccccc1)NC(=O)[C@H](CO)NC(=O)[C@H](CO)NC(=O)[C@H](CCCNC(=N)N)NC(=O)[C@H](CCC(N)=O)NC(=O)[C@H](CC(C)C)NC(=O)[C@H](Cc1ccccc1)NC(=O)[C@H](Cc1c[nH]cn1)NC(=O)[C@H](C)NC(=O)[C@H](CC(C)C)NC(=O)[C@H](CCCNC(=N)N)NC(=O)[C@H](CCC(N)=O)NC(=O)[C@@H](NC(=O)[C@H](C)NC(=O)[C@@H]1CSSC[C@H](NC(=O)[C@H](CCCNC(=N)N)NC(=O)CC[C@H](NC(=O)CCCCCCCCCCCCCCCCCCC(=O)O)C(=O)O)C(=O)N[C@@H](CC(N)=O)C(=O)N[C@@H]([C@@H](C)O)C(=O)N[C@@H](C)C(=O)N[C@@H]([C@@H](C)O)C(=O)N1)[C@@H](C)O) [[19CD]-isoGlu-R-C( )-NTAT-C( )-ATQRLAHFLQRSSF-Gly(Me)-A-Ile(Me)-LSSTEVGSTT-Hyp-NH2 (Compd. 73)] |
| 0.27 | {C20 diacid}-[γGlu]RCPTATCATERLAHFLQRSSF[Sar]A[NMeI]LSSTEVGSGT[Hyp]-NH2 (disulfide 3-8; SMILES CC[C@H](C)[C@@H](C(=O)N[C@@H](CC(C)C)C(=O)N[C@@H](CO)C(=O)N[C@@H](CO)C(=O)N[C@H](C(=O)N[C@@H](CCC(=O)O)C(=O)N[C@H](C(=O)NCC(=O)N[C@@H](CO)C(=O)NCC(=O)N[C@H](C(=O)N1C[C@H](O)C[C@H]1C(N)=O)[C@@H](C)O)C(C)C)[C@@H](C)O)N(C)C(=O)[C@H](C)NC(=O)CN(C)C(=O)[C@H](Cc1ccccc1)NC(=O)[C@H](CO)NC(=O)[C@H](CO)NC(=O)[C@H](CCCNC(=N)N)NC(=O)[C@H](CCC(N)=O)NC(=O)[C@H](CC(C)C)NC(=O)[C@H](Cc1ccccc1)NC(=O)[C@H](Cc1c[nH]cn1)NC(=O)[C@H](C)NC(=O)[C@H](CC(C)C)NC(=O)[C@H](CCCNC(=N)N)NC(=O)[C@H](CCC(=O)O)NC(=O)[C@@H](NC(=O)[C@H](C)NC(=O)[C@@H]1CSSC[C@H](NC(=O)[C@H](CCCNC(=N)N)NC(=O)CC[C@H](NC(=O)CCCCCCCCCCCCCCCCCCC(=O)O)C(=O)O)C(=O)N2CCC[C@H]2C(=O)N[C@@H]([C@@H](C)O)C(=O)N[C@@H](C)C(=O)N[C@@H]([C@@H](C)O)C(=O)N1)[C@@H](C)O) [[19CD]-isoGlu-R-C( )-PTAT-C( )-ATERLAHFLQRSSF-Gly(Me)-A-Ile(Me)-LSSTEVGSGT-Hyp-NH2 (Compd. 72)] |
| 0.18 | {C20 diacid}-[γGlu]RCNTATCATQRLAHFLQRSSF[Sar]A[NMeI]LSSTEVGSGT[Hyp]-NH2 (disulfide 3-8; SMILES CC[C@H](C)[C@@H](C(=O)N[C@@H](CC(C)C)C(=O)N[C@@H](CO)C(=O)N[C@@H](CO)C(=O)N[C@H](C(=O)N[C@@H](CCC(=O)O)C(=O)N[C@H](C(=O)NCC(=O)N[C@@H](CO)C(=O)NCC(=O)N[C@H](C(=O)N1C[C@H](O)C[C@H]1C(N)=O)[C@@H](C)O)C(C)C)[C@@H](C)O)N(C)C(=O)[C@H](C)NC(=O)CN(C)C(=O)[C@H](Cc1ccccc1)NC(=O)[C@H](CO)NC(=O)[C@H](CO)NC(=O)[C@H](CCCNC(=N)N)NC(=O)[C@H](CCC(N)=O)NC(=O)[C@H](CC(C)C)NC(=O)[C@H](Cc1ccccc1)NC(=O)[C@H](Cc1c[nH]cn1)NC(=O)[C@H](C)NC(=O)[C@H](CC(C)C)NC(=O)[C@H](CCCNC(=N)N)NC(=O)[C@H](CCC(N)=O)NC(=O)[C@@H](NC(=O)[C@H](C)NC(=O)[C@@H]1CSSC[C@H](NC(=O)[C@H](CCCNC(=N)N)NC(=O)CC[C@H](NC(=O)CCCCCCCCCCCCCCCCCCC(=O)O)C(=O)O)C(=O)N[C@@H](CC(N)=O)C(=O)N[C@@H]([C@@H](C)O)C(=O)N[C@@H](C)C(=O)N[C@@H]([C@@H](C)O)C(=O)N1)[C@@H](C)O) [[19CD]-isoGlu-R-C( )-NTAT-C( )-ATQRLAHFLQRSSF-Gly(Me)-A-Ile(Me)-LSSTEVGSGT-Hyp-NH2 (Compd. 71)] |
| 0.26 | {C20 diacid}-[γGlu]RCNTATCATQRLAHFLQRSSF[Sar]A[NMeI]LSSTEVGS[Aad]T[Hyp]-NH2 (disulfide 3-8; SMILES CC[C@H](C)[C@@H](C(=O)N[C@@H](CC(C)C)C(=O)N[C@@H](CO)C(=O)N[C@@H](CO)C(=O)N[C@H](C(=O)N[C@@H](CCC(=O)O)C(=O)N[C@H](C(=O)NCC(=O)N[C@@H](CO)C(=O)N[C@@H](CCCC(=O)O)C(=O)N[C@H](C(=O)N1C[C@H](O)C[C@H]1C(N)=O)[C@@H](C)O)C(C)C)[C@@H](C)O)N(C)C(=O)[C@H](C)NC(=O)CN(C)C(=O)[C@H](Cc1ccccc1)NC(=O)[C@H](CO)NC(=O)[C@H](CO)NC(=O)[C@H](CCCNC(=N)N)NC(=O)[C@H](CCC(N)=O)NC(=O)[C@H](CC(C)C)NC(=O)[C@H](Cc1ccccc1)NC(=O)[C@H](Cc1c[nH]cn1)NC(=O)[C@H](C)NC(=O)[C@H](CC(C)C)NC(=O)[C@H](CCCNC(=N)N)NC(=O)[C@H](CCC(N)=O)NC(=O)[C@@H](NC(=O)[C@H](C)NC(=O)[C@@H]1CSSC[C@H](NC(=O)[C@H](CCCNC(=N)N)NC(=O)CC[C@H](NC(=O)CCCCCCCCCCCCCCCCCCC(=O)O)C(=O)O)C(=O)N[C@@H](CC(N)=O)C(=O)N[C@@H]([C@@H](C)O)C(=O)N[C@@H](C)C(=O)N[C@@H]([C@@H](C)O)C(=O)N1)[C@@H](C)O) [[19CD]-isoGlu-R-C( )-NTAT-C( )-ATQRLAHFLQRSSF-Gly(Me)-A-Ile(Me)-LSSTEVGS-Aad-T-Hyp-NH2 (Compd. 75)] |
| 0.34 | {C20 diacid}-[γGlu]RCGTATCATERLAHFLQRSSF[Sar]A[NMeI]LSSTEVGSNT[Hyp]-NH2 (disulfide 3-8; SMILES CC[C@H](C)[C@@H](C(=O)N[C@@H](CC(C)C)C(=O)N[C@@H](CO)C(=O)N[C@@H](CO)C(=O)N[C@H](C(=O)N[C@@H](CCC(=O)O)C(=O)N[C@H](C(=O)NCC(=O)N[C@@H](CO)C(=O)N[C@@H](CC(N)=O)C(=O)N[C@H](C(=O)N1C[C@H](O)C[C@H]1C(N)=O)[C@@H](C)O)C(C)C)[C@@H](C)O)N(C)C(=O)[C@H](C)NC(=O)CN(C)C(=O)[C@H](Cc1ccccc1)NC(=O)[C@H](CO)NC(=O)[C@H](CO)NC(=O)[C@H](CCCNC(=N)N)NC(=O)[C@H](CCC(N)=O)NC(=O)[C@H](CC(C)C)NC(=O)[C@H](Cc1ccccc1)NC(=O)[C@H](Cc1c[nH]cn1)NC(=O)[C@H](C)NC(=O)[C@H](CC(C)C)NC(=O)[C@H](CCCNC(=N)N)NC(=O)[C@H](CCC(=O)O)NC(=O)[C@@H](NC(=O)[C@H](C)NC(=O)[C@@H]1CSSC[C@H](NC(=O)[C@H](CCCNC(=N)N)NC(=O)CC[C@H](NC(=O)CCCCCCCCCCCCCCCCCCC(=O)O)C(=O)O)C(=O)NCC(=O)N[C@@H]([C@@H](C)O)C(=O)N[C@@H](C)C(=O)N[C@@H]([C@@H](C)O)C(=O)N1)[C@@H](C)O) [[19CD]-isoGlu-R-C( )-GTAT-C( )-ATERLAHFLQRSSF-Gly(Me)-A-Ile(Me)-LSSTEVGSNT-Hyp-NH2 (Compd. 7)] |
